Source: PMC9520691 (ACS Omega, 2022)
Several values for one entry are separate records, joined by “and”; a condition that tells them apart may be missing. Equal values may be shown once.

Target: the molecule itself
Assay: AUC

| Protein | stoichiometry N |
| --- | --- |
| full length ODC wildtype (enzyme, human, UniProt P11926 1-461, looked up) MNNFGNEEFDCHFLDEGFTAKDILDQKINEVSSSDDKDAFYVADLGDILKKHLRWLKALPRVTPFYAVKCNDSKAIVKTLAATGTGFDCASKTEIQLVQSLGVPPERIIYANPCKQVSQIKYAANNGVQMMTFDSEVELMKVARAHPKAKLVLRIATDDSKAVCRLSVKFGATLRTSRLLLERAKELNIDVVGVSFHVGSGCTDPETFVQAISDARCVFDMGAEVGFSMYLLDIGGGFPGSEDVKLKFEEITGVINPALDKYFPSDSGVRIIAEPGRYYVASAFTLAVNIIAKKIVLKEQTGSDDEDESSEQTFMYYVNDGVYGSFNCILYDHAHVKPLLQKRPKPDEKYYSSSIWGPTCDGLDRIVERCDLPEMHVGDWMLFENMGAYTVAAASTFNGFQRPTIYYVMSGPAWQLMQQFQNPDFPPEVEEQDASTLPVSCAWESGMKRHRAACASASINV | 2 |
| full length ODC G84R (enzyme, human, UniProt P11926 1-461, looked up) MNNFGNEEFDCHFLDEGFTAKDILDQKINEVSSSDDKDAFYVADLGDILKKHLRWLKALPRVTPFYAVKCNDSKAIVKTLAATRTGFDCASKTEIQLVQSLGVPPERIIYANPCKQVSQIKYAANNGVQMMTFDSEVELMKVARAHPKAKLVLRIATDDSKAVCRLSVKFGATLRTSRLLLERAKELNIDVVGVSFHVGSGCTDPETFVQAISDARCVFDMGAEVGFSMYLLDIGGGFPGSEDVKLKFEEITGVINPALDKYFPSDSGVRIIAEPGRYYVASAFTLAVNIIAKKIVLKEQTGSDDEDESSEQTFMYYVNDGVYGSFNCILYDHAHVKPLLQKRPKPDEKYYSSSIWGPTCDGLDRIVERCDLPEMHVGDWMLFENMGAYTVAAASTFNGFQRPTIYYVMSGPAWQLMQQFQNPDFPPEVEEQDASTLPVSCAWESGMKRHRAACASASINV | 2 and 3 |
